According to article PMC10456876:

How the values were obtained:
[1] = target: human telomeric nucleosome core particle (teloNCP), P68431;P62805;P04908;P06899; test: EMSA; conditions: chain shown with the change, triplicate; for response: read off a plot; for EC50: titration 0, 23, 36, 55, 85, 130, 200 nM TRF1core against teloNCP
TRF1 (human), P54274 = target: T1, TRF1 (human), P54274; test: native MS; purified TRF1core (co-expressed in Sf9, co-purified through MBP on TIN2) at 20 uM, dialysed into 750 mM ammonium acetate pH 8.0, 1 mM DTT; conditions: remark: other sources report otherwise
T1 chain: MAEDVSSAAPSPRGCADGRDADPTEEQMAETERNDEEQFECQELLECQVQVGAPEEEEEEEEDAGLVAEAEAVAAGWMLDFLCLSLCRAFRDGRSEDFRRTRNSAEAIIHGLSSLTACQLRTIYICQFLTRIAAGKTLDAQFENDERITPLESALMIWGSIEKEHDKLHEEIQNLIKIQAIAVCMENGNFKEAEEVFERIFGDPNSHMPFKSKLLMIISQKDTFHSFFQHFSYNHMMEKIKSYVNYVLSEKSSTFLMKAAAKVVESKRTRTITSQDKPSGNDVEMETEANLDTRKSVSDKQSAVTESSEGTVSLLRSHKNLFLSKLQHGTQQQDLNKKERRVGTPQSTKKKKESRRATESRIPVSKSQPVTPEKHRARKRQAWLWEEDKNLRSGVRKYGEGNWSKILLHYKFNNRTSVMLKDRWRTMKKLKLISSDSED

[2] = point at 55 nM TRF1core, parent: est. 79

B1: wild-type MBP-tagged TRF1core (TRF1-TIN2-TPP1), P54274;Q9BSI4 S434D; S435D; S437D (protein)
chain 1: MAEDVSSAAPSPRGCADGRDADPTEEQMAETERNDEEQFECQELLECQVQVGAPEEEEEEEEDAGLVAEAEAVAAGWMLDFLCLSLCRAFRDGRSEDFRRTRNSAEAIIHGLSSLTACQLRTIYICQFLTRIAAGKTLDAQFENDERITPLESALMIWGSIEKEHDKLHEEIQNLIKIQAIAVCMENGNFKEAEEVFERIFGDPNSHMPFKSKLLMIISQKDTFHSFFQHFSYNHMMEKIKSYVNYVLSEKSSTFLMKAAAKVVESKRTRTITSQDKPSGNDVEMETEANLDTRKSVSDKQSAVTESSEGTVSLLRSHKNLFLSKLQHGTQQQDLNKKERRVGTPQSTKKKKESRRATESRIPVSKSQPVTPEKHRARKRQAWLWEEDKNLRSGVRKYGEGNWSKILLHYKFNNRTSVMLKDRWRTMKKLKLIDDDDED
chain 2: MATPLVAGPAALRFAAAASWQVVRGRCVEHFPRVLEFLRSLRAVAPGLVRYRHHERLCMGLKAKVVVELILQGRPWAQVLKALNHHFPESGPIVRDPKATKQDLRKILEAQETFYQQVKQLSEAPVDLASKLQELEQEYGEPFLAAMEKLLFEYLCQLEKALPTPQAQQLQDVLSWMQPGVSITSSLAWRQYGVDMGWLLPECSVTDSVNLAEPMEQNPPQQQRLALHNPLPKAKPGTHLPQGPSSRTHPEPLAGRHFNLAPLGRRRVQSQWASTRGGHKERPTVMLFPFRNLGSPTQVISKPESKEEHAIYTADLAMGTRAASTGKSKSPCQTLGGRALKENPVDLPATEQKENCLDCYMDPLRLSLLPPRARKPVCPPSLCSSVITIGDLVLDSDEEENGQGEGKESLENYQKTKFDTLIPTLCEYLPPSGHGAIPVSSCDCRDSSRPL
chain 3: MAGSGRLVLRPWIRELILGSETPSSPRAGQLLEVLQDAEAAVAGPSHAPDTSDVGATLLVSDGTHSVRCLVTREALDTSDWEEKEFGFRGTEGRLLLLQDCGVHVQVAEGGAPAEFYLQVDRFSLLPTEQPRLRVPGCNQDLDVQKKLYDCLEEHLSESTSSNAGLSLSQLLDEMREDQEHQGALVCLAESCLTLEGPCTAPPVTHWAASRCKATGEAVYTVPSSMLCISENDQLILSSLGPCQRTQGPELPPPDPALQDLSLTLIASPPSSPSSSGTPALPGHMSSEESGTSISLLPALSLAAPDPGQRSSSQPSPAICSAPATLTPRSPHASRTPSSPLQSCTPSLSPRSHVPSPHQALVTRPQKPSLEFKEFVGLPCKNRPPFPRTGATRGAQEPCSVWEPPKRHRDGSAFQYEYEPPCTSLCARVQAVRLPPQLMAWALHFLMDAQPGSEPTPM
**Q.** With B1 as the binder, how does the response [1, 2] read?
**A.** The response was 91 % Bound.

**Q.** What about the EC50 [1] of the same binder?
**A.** Its EC50 is 30.3 nM.

B2: TRF1, P54274 1-439 (natural protein)
chain: MAEDVSSAAPSPRGCADGRDADPTEEQMAETERNDEEQFECQELLECQVQVGAPEEEEEEEEDAGLVAEAEAVAAGWMLDFLCLSLCRAFRDGRSEDFRRTRNSAEAIIHGLSSLTACQLRTIYICQFLTRIAAGKTLDAQFENDERITPLESALMIWGSIEKEHDKLHEEIQNLIKIQAIAVCMENGNFKEAEEVFERIFGDPNSHMPFKSKLLMIISQKDTFHSFFQHFSYNHMMEKIKSYVNYVLSEKSSTFLMKAAAKVVESKRTRTITSQDKPSGNDVEMETEANLDTRKSVSDKQSAVTESSEGTVSLLRSHKNLFLSKLQHGTQQQDLNKKERRVGTPQSTKKKKESRRATESRIPVSKSQPVTPEKHRARKRQAWLWEEDKNLRSGVRKYGEGNWSKILLHYKFNNRTSVMLKDRWRTMKKLKLISSDSED
modifications: here or on the partner: phosphoserine at 434, 435 and 437 (likely by endogenous insect cell kinases; S435 phosphorylated in 87.3% of the identified peptides); phosphoserine at 434, 435 and 437 (likely by endogenous insect cell kinases; S435 phosphorylated in 87.3% of the identified peptides)
**Q.** Which stoichiometry N (TRF1 (human), P54274) does the source give for B2 here?
**A.** Its stoichiometry N is 2.

B3: wild-type MBP-tagged TRF1core (TRF1-TIN2-TPP1), P54274;Q9BSI4 L384A; W385A; K389A (protein)
chain 1: AEDVSSAAPSPRGCADGRDADPTEEQMAETERNDEEQFECQELLECQVQVGAPEEEEEEEEDAGLVAEAEAVAAGWMLDFLCLSLCRAFRDGRSEDFRRTRNSAEAIIHGLSSLTACQLRTIYICQFLTRIAAGKTLDAQFENDERITPLESALMIWGSIEKEHDKLHEEIQNLIKIQAIAVCMENGNFKEAEEVFERIFGDPNSHMPFKSKLLMIISQKDTFHSFFQHFSYNHMMEKIKSYVNYVLSEKSSTFLMKAAAKVVESKRTRTITSQDKPSGNDVEMETEANLDTRKSVSDKQSAVTESSEGTVSLLRSHKNLFLSKLQHGTQQQDLNKKERRVGTPQSTKKKKESRRATESRIPVSKSQPVTPEKHRARKRQAWAAEEDANLRSGVRKYGEGNWSKILLHYKFNNRTSVMLKDRWRTMKKLKLISSDSED
chain 2: MATPLVAGPAALRFAAAASWQVVRGRCVEHFPRVLEFLRSLRAVAPGLVRYRHHERLCMGLKAKVVVELILQGRPWAQVLKALNHHFPESGPIVRDPKATKQDLRKILEAQETFYQQVKQLSEAPVDLASKLQELEQEYGEPFLAAMEKLLFEYLCQLEKALPTPQAQQLQDVLSWMQPGVSITSSLAWRQYGVDMGWLLPECSVTDSVNLAEPMEQNPPQQQRLALHNPLPKAKPGTHLPQGPSSRTHPEPLAGRHFNLAPLGRRRVQSQWASTRGGHKERPTVMLFPFRNLGSPTQVISKPESKEEHAIYTADLAMGTRAASTGKSKSPCQTLGGRALKENPVDLPATEQKENCLDCYMDPLRLSLLPPRARKPVCPPSLCSSVITIGDLVLDSDEEENGQGEGKESLENYQKTKFDTLIPTLCEYLPPSGHGAIPVSSCDCRDSSRPL
chain 3: MAGSGRLVLRPWIRELILGSETPSSPRAGQLLEVLQDAEAAVAGPSHAPDTSDVGATLLVSDGTHSVRCLVTREALDTSDWEEKEFGFRGTEGRLLLLQDCGVHVQVAEGGAPAEFYLQVDRFSLLPTEQPRLRVPGCNQDLDVQKKLYDCLEEHLSESTSSNAGLSLSQLLDEMREDQEHQGALVCLAESCLTLEGPCTAPPVTHWAASRCKATGEAVYTVPSSMLCISENDQLILSSLGPCQRTQGPELPPPDPALQDLSLTLIASPPSSPSSSGTPALPGHMSSEESGTSISLLPALSLAAPDPGQRSSSQPSPAICSAPATLTPRSPHASRTPSSPLQSCTPSLSPRSHVPSPHQALVTRPQKPSLEFKEFVGLPCKNRPPFPRTGATRGAQEPCSVWEPPKRHRDGSAFQYEYEPPCTSLCARVQAVRLPPQLMAWALHFLMDAQPGSEPTPM
**Q.** Which results are given for B3?
**A.** response [1, 2]: 68 % Bound; response ([1]; point at 200 nM TRF1core, parent: est. 100): 97 % Bound; EC50 [1]: 42.4 nM
